# Measurements as given in the supplement of paper PMC7125110.
# ± gives the standard error. This sample holds only a part of the variants without activity.
# B1: glmS ribozyme (parent)
# chain: AUAAAAGCGCCAGAACUACAGAAAUGUAGUUGACGAGGAGGAGGUUUAUCGAAUUUUCGGCGGAUGCCUCCAAA
# Variants of: B1
# Experiment: self-cleavage kobs at 10000 uM GlcN6P; higher = faster cleavage; RNA array
# Details: with glucosamine-6-phosphate
# In short: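 Tiles of sequenced MiSeq chips were imaged over ~14 h at 37 °C. On them, barcoded ribozyme variants had been transcribed in situ by E. coli RNA polymerase and were tracked via a hybridised Cy3 probe while glucosamine-6-phosphate (40 μM to 10 mM) in HEPES/KCl/Mg(OAc)2 buffer flowed in. Per-tile medians, normalised to baseline and to non-cleaving reference variants, were fit to one- or two-exponential decays for kobs, and weighted Michaelis–Menten fits gave kcat and KM.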
row,Variant,self-cleavage kobs at 10000 uM GlcN6P
1,AUAAAAGCUCCAGAACUACAGAAAUGUAGUUGUCGAGGAAGAGGUUUAUCGAAUUUUUGGCGGAUGCCUCCAAA,< 1e-05 s⁻¹
2,AUAAAAGCGCCAAAACUACAGAAAUGUAGUUGACGCGUAGGAGGUUUAUCGAAUUUUCGGCGGAUGCCUCCAAA,< 1e-05 s⁻¹
3,AUAAAAGCGCCAGAACUACAGAAAUGUAGUUGACGAGGAGGAGGUUAAUCGAAGAUUCGGCGGAUGCCUACAAA,0.000105 ± 3e-05 s⁻¹
4,AUAAAAGCGCCAGAUCUACAGAAAUGUAGUUGACGAGUAGGAGGUUUAUCGAAUUUCCGGUGGAUGCCUCCAAA,< 1e-05 s⁻¹
5,AUAAAUGCGCCAGAACUACAGAAAUGUAGUUGACGAGGUGGAGGUUUAUCGAAAUUUCGUCGGAUGCCUCCAAA,< 1e-05 s⁻¹
6,AUAAAAGCGCCAGAACUACAGAAAUGUAGUUGUCCAGGAGGAGGUUUAUCGAAUUUUCGGCGGAUGCCUCGAAA,< 1e-05 s⁻¹
7,AUAAAAGCACCAGAUCUACAGAAAUGUAUUUGACGAGGAGGAGGUUUAUCGAAUUUUCGGCGGAUGCGUCCAAA,< 1e-05 s⁻¹
8,AUAAAAGCGCCGGAACUACAGAAAUGUAGUUGACGAGGAGGAGGUAUAUCGAAUUUUCGGCGGAUGCCUCGAAA,3.42e-05 ± 1.3e-05 s⁻¹
9,AUAAAAAGCCCAGAACUACAGAAAUGUAUUUGACCAAGAGGAGGUUUAUCGAAUUUUCGGCGGAUGCCUCCAAA,< 1e-05 s⁻¹
10,AUAAAAGCUCCAGAACUACAGAAAUGUAGUUGAGGAGGAGGAGGUUUAUCGAAUUUUCGGCGGAUGCCUGCAAA,< 1e-05 s⁻¹
11,AUAAAAACGCCAGAACUACAGAAAUGUAGUUGACGAGGAGGAGGUUUAUCGAAUUUAAGGCGGAUGCCUCCAAA,< 1e-05 s⁻¹
12,AUAAAAGCGCCAGAACUACAGAAAUGUAGCGGGCGAGGAGGAGGUUUAUCGAAUUUUCGGCGGAUGCCGCCAAA,< 1e-05 s⁻¹
13,AUAAAAGCGCCAGCACUACAGAAAUGUAGUUGACGAGGAGGAGGUUUAUCGAAUUUUCGGCGGAGGCUUCCAAA,0.000226 ± 4.7e-05 s⁻¹
14,AUAAAAGCGCCAGAACUACAGAAAUGUAGUUGACGAGGAGGAGGGUUAUCGAAUUUGCGGCGGAUGCCUCCAAA,3.68e-05 ± 9e-06 s⁻¹
15,AUAAAAGCGCCAGAUCUACAGAAAUGUAGUUGACGAGGAGGAGGUUUAUUGAAUUUUCGGGGGGUGCCUCCAAA,< 1e-05 s⁻¹
16,AUAAAAGCGCCAGAACUACAGAAAUGUAGUUGACGAGGACGAGGUUUAUCGAGUUUUCGGCGGAUCCCUCCAAA,0.000137 ± 2.8e-05 s⁻¹
17,AUAAAAGCGCCAGAACUACAGAAAUGUAGUUGACGAGGAGGAGGUUUGUCGAAUUUUUGGCGGUUGCCUCCAAA,< 1e-05 s⁻¹
18,AUAAAAGCGCCAGGACUACAGAAAUGUAGUUGACGAGGAGGAGGUUCAUCGAAUUGUCGGCGGAUGCCUCCAAA,0.0112 ± 0.0019 s⁻¹
19,AUAAUAGCGCCAGAACUACAGAAAUGUAGUUGACGAGGCGGAGGUUUAUCGAAUUUUCGGCGGAGGCUUCCAAA,4.87e-05 ± 1.6e-05 s⁻¹

row,Variant,self-cleavage kobs at 10000 uM GlcN6P
1,AUAAAAGCGCCAGAAGUACAGAAAUGUAGUUGACGAGGAGGAGGUUUAUCGAAUUUUCGGCGGAUGACUUCAAA,9.5e-05 ± 2.1e-05 s⁻¹
2,AUAAAAGCGCCAGAACUACAGAAAUGUAGUUGACGAGGAGGAGGAUUAUCGAAUUAUCGGCGGAUGCCUCCAAA,0.0179 ± 0.0079 s⁻¹
3,AUAAAAUCGCCCGAACUACAGAAAUGUAGUUGACGAGGAGGAGGCUUAUCGAAUUUUCGGCGGAUGCCUCCAAA,< 1e-05 s⁻¹
4,AUAAAAGCGCCAGAAAUACAGAAAUGUAUUUGACGAGGAGGAGGGUUAUCGAAUUUUCGGCGGAUGCCUCCAAA,0.0036 ± 0.00061 s⁻¹
5,AUAAAAGCGCCAGAACUACAGAAAUGUAGUUGACGAAGAAGAGGUUUAUCGAAUUUUUGGCGGAUCCCUCCAAA,< 1e-05 s⁻¹
6,AUAAAAGCGCCAGAACUACAGAAAUGUAGUUGACGAGGAGGUGCUUUAUCGAAUUUUCGGCUGAUGCCUGCAAA,< 1e-05 s⁻¹
7,AUAAAAGCGCCAGAAGUACAGAAAUGUAGUUGACGAGGAGGAGGUGUAUCGAAUUUUCGGCGGAUGUCUCCAAA,0.000334 ± 6.9e-05 s⁻¹
8,AUAAAAGCGCCAGAUCUACAGAAAUGUAGUUGACGAGGAUGAGGUUUAUCGAAAUUUCGGCGGAUGCCUCCAAA,7.33e-05 ± 1.6e-05 s⁻¹
9,AUAAAAGCGCCAGCACUACAGAAAUGUAGUUGACGAGGAGGAGAAUUAUCGAAUUUUCGGCGGAUGCCUCCAAA,7.22e-05 ± 2.3e-05 s⁻¹
10,AUAAAAGCGCCAGGACUACAGAAAUGUAGUUGACGAGGGGGAGCUUUAUCGAAUUUUCGGCGGAUGCUUCCAAA,3.6e-05 ± 1.5e-05 s⁻¹
11,AUAAAAGCGCCAGUACUACAGAAAUGUAGUUUACGAGGAGGAGGUCUAUCGAAUUUUCGGCGGAUGCCUCCAAA,4.16e-05 ± 1.4e-05 s⁻¹
12,AUAAAAGCGCCAGAGCUACAGAAAUGUAGUUGACGAGGAGGAGGUUUAUCGAAUUUUCGGGCGAUGCCUCCAAA,< 1e-05 s⁻¹
13,AUAAAAGCGCCAGAACUACAGAAAUGUAGUUGACGAGGAGGAGGUUUAUCGACUGUUCGGCGGAUGUCUCCAAA,0.00164 ± 0.00038 s⁻¹
14,AUAAAAGCGCCAGCACUACAGAAAUGUAGUCGACGAGGAGAAGGUUUAUCGAAUUUUCGGCGGAUGCCUCCAAA,7.28e-05 ± 1.8e-05 s⁻¹
15,AUAAAAGCGCCAGAACUACAGAAAUGUAGUUGGCGAGGAGGAGGUUUAUUGAAUUUUGGGCGGAUGCCUCUAAA,< 1e-05 s⁻¹
16,AUAAAAGCGCCACAACUACAGAAAUGUAGUUGACGAGGAGGAGGUUUAUCGAAUUUUCGGCGGAUGCCUCAAAA,4.74e-05 ± 1.4e-05 s⁻¹
17,AUAAAAGCGCCAGAACUACAGAAAUGUAGUUGACGAGAAGGAGGUUUAUCAAAUUUUCGGCGGAUGCCUCCAAA,< 1e-05 s⁻¹
18,AUAAAAGCGCCAGAACUACAGAAAUGUAGUUGACGAGAAGGGGGUUUAACGAAUUUUCGGCGGAUGCCUCCAAA,< 1e-05 s⁻¹
